Assay results taken from the DeepSol protein solubility set.

Test: soluble on expression in E. coli; label from the status in PepcDB or PDB records

| Sequence | soluble on expression in E. coli |
| --- | --- |
| MLAAFISRVLRRVAQKSARRVLVASRNSSNDATFEIKKCDLYLLEEGPPVTTVLTRAEGLKYYRMMLTVRRMELKADQLYKQKFIRGFCHLCDGQEACCVGLEAGINPSDHVITSYRAHGVCYTRGLSVRSILAELTGRRGGCAKGKGGSMHMYTKNFYGGNGIVGAQGPLGAGIALACKYKGNDEICLTLYGDGAANQGQIAEAFNMAALWKLPCVFICENNLYGMGTSTERAAASPDYYKRGNFIPGLKVDGMDVLCVREATKFAANYCRSGKGPILMELQTYRYHGHSMSDPGVSYRTREEIQEVRSKRDPIIILQDRMVNSKLATVEELKEIGAEVRKEIDDAAQFATTDPEPHLEELGHHIYSSDSSFEVRGANPWIKFKSVS | soluble |
| MTGALAMMPSTSSPYPLLAPPTCSSRLPPLRCFVGLRWSAPRIQVREYPDAVAGIAKGAGGRGGRFRAPASSISQPCSRTIIITNEHVQNADFPPNYSKREKKPFPIPVLELRRRAKERAKKAEGKPKRSLPPPKNGMLIKRLIPVAYKVYNARILLINNLKRLMKVIPVKGCKHCSEIHVGSVGHPFRTCKGMSSDKRRGQHDWGGTLVEAVFVPVEAYHLEDRLGKRIPHDQRFAVPRIPALVELCIQAGVNLPEYPTKRRRKPIIKIGKNEFVDANEDDLPDPEPYKLEHPILEELNDNEIIAPASPEEIVALAEETLEAWEVVRDGALKLMKGYAVRVCGYCPEVHIGASGHKARNCGAFKHQQRNGQHGWQAAVLDDLIPPRYVWHLPESGEDLQRDLKSFYGQAPAIVEICVQAGAKVPEKYKATMRLDIGIPTSLREAEMVV | not soluble |
| MAHHHHHHMVHKKQAWAKRVKKERFKKKFLTRMQATRLLQMESVQFRRLCILKGIYPRALNRSKQKQSGNEKQYYLAREIKWLVRDQIAEKMMAYRAWEKKVKRAEAMGRSEDLKVLQTSRVKPRHSLVATIKERYPYFIDAIRDVDDAMSMIHLYAFLSPEIKSDTTIEIHHSLTSGLSERAKEVCERWDRYVARARVLTKGFISIKGYYYEAIVKGERVRWLCPHEYAHRFPPGIQQYVMLSFLEFYLEMMKFVLFKLESDLARDEADRLAAEDEEGVTRANAEDFANGAALAVLDVGANQAQAKAVKEAESKRSLMEEELHKVRELFRGLTFFISREVPAKHFALVINACGGRVATDYVPSNITHVVVDRPALPPGMKKHDQLEYVQPQYIFDCLNARLVLPVTGYRIGEELPPHVSPFSVSITNSAEDNAAVVQVKKDHPRIVGYVPARVHEIRKLINPSYSAVDPEGKVAHLEDEYSDEESHVAVPEMDMEDDVSLSGDELAEARRKPAWQEEEVTEEVQRPKLSAFKVKKQREMNLMNAPTNEVVARRRQALRKAQEKSRQTETSEARLQRKMSEVKRQEAATRKMQLQVARKKAARFYKMVSGVVQGTAKKVATLEAKAKHIAEGKLRKTEDGKGLVNKRLEARRQRAEAKGKKLKERKAGNPYKKLPKWVQ | not soluble |
| AEPDQAPELNEAQREAVDTIGALSAFQPVLLHGVTGSGKTEVYLHAAARVLQAGRQVLLMVPEINLTPQLEGALRARLEALVGPQGVAILHSGLADGERVQAWARAQRGQARLLLGTRMSIFAPLPELGLIVVDEEHDPSYKQQEGLRYSARDLAIWRARDLDIPVVLGSATP | not soluble |
| MAMNNILGLFAHSPLKPLQKHSEKVTECSDLLIPFFQTTFSKNWEQAEEKRLEISQCEREADSLKREIRLKLPRGLFLPIDRTDLLELVTQQDKLANYAKDIAGRMIGRQFGIPEEMQEEFLHYVKRSLDAIHQAHRVIEEMDKLLETGFKGRELKLVNDMIQELDSIEDDTDQMQIKLRKMLYTIESRYNPIDVMFLYKIIEWVGVLADQAQRVGSRIELMLARS | not soluble |
| MQELINEYRGALQEVNEVKANLQTKIDAKKRPPQAAGQKRTIQEVPEKAIMSKLNSIIRSLEYSIEWMELGHEPAPRRAIHRRSGLQREVCVTDIETMRQWFVYEHGIAYDFEDNEPKISEWDKIRMEDAMSTMSTQEKKVFLLKHEKNLSYSQISDEMEISVRSVRSYLHRGEEKIQNQIDGSLFCMAI | not soluble |
| MKVIKGLTAGLIFLFLCACGGQQIKDPLNYEVEPFTFQNQDGKNVSLESLKGEVWLADFIFTNCETICPPMTAHMTDLQKKLKAGNIDVRIISFSVDPENDKPKQLKKFAANYPLSFDNWDFLTGYSQSEIEEFALKSFKAIVKKPEGEDQVIHQSSFYLVGPDGKVLKDYNGVENTPYDDIISDVKSASTLKLEHHHHHH | not soluble |
| SLPLTMTVLILLLLPTGQAAPKDGVTRPDSEVQHQLLPNPFQPGQEQLGLLQSYLKGLGRTEVQLEHLSREQVLLYLFALHDYDQSGQLDGLELLSMLTAALAPGAANSPTTNPVILIVDKVLETQDLNGDGLMTPAELINFPGVALRHVEPGEPLAPSPQEPQAVGRQSLLAKSPLRQETQEAPGPREEAKGQVEARRESLDPVQEPGGQAEADGDVPGPRGEAEGQAEAKGDAPGPRGEAGGQAEAEGDAPGPRGEAGGQAEARENGEEAKELPGETLESKNTQNDFEVHIVQVENDEI | soluble |
| MNLSFKIFDISNTQRSKAKKVQGKKYEIFLNENEHSLITPKVSFKEILRYYYLYPKNAIPSFKLPFFKPDLSGFSTPHITWLGHSSLFISFKEYKILIDPIFNTHASPISFINKAFKNAPVYNINDFNEIFAVIITHSHFDHLDAKSVKALKDKAKFFITPLKVGNYLKSYGVSEKKIIELDWWSGIEFGDLKIMATPAQHSSSRGDGKNKTLWASFVMEFLSVDKRVFFSADGGYFTHFKKIGEYFGSFDLACLESGQFNIAWPYSHSFPEQILKEAKDLNAKAVMPIHWGRFLAGTHAWNEVVKFLYENLDLPLITPKMGEAYEVGAKFKQDFWWKEELEHHHHHH | not soluble |
| MKITTEALRWWEDGETVGGRDLVGGGTWLGCTRHGRLAFLTNFKEASSFPAAKSRGDLPLRYLQSEKSPAEFAEEIQDEISLYNGFNLVVAHVLSKSMIYITNRPPHGDKLVTQVSPGIHVLSNANLDSPWPKVNSPNCVFLSLQCLRLREGFQQLLAENGSGEFPVKTMVEEVMTNTVKDEETELPHVFTPETEYHLSSIFVDMQRPTGRYGTRSISAIIVKSHGDGGGDGEICFYERHLEEGDSWKEHTQQFVIIQNQSI | soluble |
| RTYGDGTKPQTDRVVGGLVVEYDITENIMVSAHYDRTKDEGSVDSGAYIVDGKPVRGDKYIWDAQWSKIDNDVENYGIDINAQVTDNVNVKAGYNRQDFKRFDVESYPKFDNYDKDGVIRHKGNERTDNWVFDTAYLDVTTNFSLLGTENTFLVGANYLDYKYDRFMASHAGEDVAAGTTVTRPGTVRSKKYPRREHDTWGIYAQNMMTINDYWQVLAGARYDEKREDSLTENQVSPKLGVIFHPTSNGSIYVQYSESFMPQGEVSNGSRIYINDGEKLDAERGISYEIGTKWELFDQRLFVSGAVFDITLENISLDVESGKDASNQLLHKKTQGGEQVHKGAELMAQGFVTPELSLTASAMYLDAELKKAERFEGNRPADVPEFSASLWSSYRVQDNTNLNLGLIYEGDRYGDAANTFKKDGYARIDMGVSYKHKYDENLDIIARFNVENLFDTDYLAGGGSTNGNQEGASGVVVGEGRNYMATIQFKY | not soluble |
| VPKLIDHDRRQQEIAEAVWRVIQREGIGAVSVRDVAAEAGISSGSLRHVFASKTELLAYSMRLVATRVRERAQAHASITDPWQRALAVLDEVLPLDDRRRCEMEVNLALVAESPAHPLLKDIALDAQRQLRGACAAILTGLAQWGLIAPDIDVDAEAMRLHALVDGAAMHVLLGDTDTPDTARRMIAEHLRTLL | not soluble |
| MYNSKQFLRTVNWHFVNSCNMSCKYCFVSCCKELPLEESISVLEKLKGHFDRINFVGGEPTVSSKLIPLVKKAKEYGFIVSMVTNGFNLYHKPETFDEILTDFSIIGISIDSLNENTNVLIGRSVKNSVLSRDDYIDLCKKIKLAGCKLKINTVVSRVNLDENFNDFYETVMPDRIKLLQVLRPAGRLKQDYTDFLIEEDDYLEFVQRHHKFSEVICSENNELMLNSYYILNSDACFLDNKSGCISGSLLENDLKSVLKNVYVDENKYRARYA | not soluble |
| MSRRRHSDENDGGQPHKRRKTSDANETEDHLESLICKVGEKSACSLESNLEGLAGVLEADLPNYKSKILRLLCTVARLLPEKLTIYTTLVGLLNARNYNFGGEFVEAMIRQLKESLKANNYNEAVYLVRFLSDLVNCHVIAAPSMVAMFENFVSVTQEEDVPQVRRDWYVYAFLSSLPWVGKELYEKKDAEMDRIFANTESYLKRRQKTHVPMLQVWTADKPHPQEEYLDCLWAQIQKLKKDRWQERHILRPYLAFDSILCEALQHNLPPFTPPPHTEDSVYPMPRVIFRMFDYTDDPEGPVMPGSHSVERFVIEENLHCIIKSHWKERKTCAAQLVSYPGKNKIPLNYHIVEVIFAELFQLPAPPHIDVMYTTLLIELCKLQPGSLPQVLAQATEMLYMRLDTMNTTCVDRFINWFSHHLSNFQFRWSWEDWSDCLSQDPESPKPKFVREVLEKCMRLSYHQRILDIVPPTFSALCPANPTCIYKYGDESSNSLPGHSVALCLAVAFKSKATNDEIFSILKDVPNPNQDDDDDEGFSFNPLKIEVFVQTLLHLAAKSFSHSFSALAKFHEVFKTLAESDEGKLHVLRVMFEVWRNHPQMIAVLVDKMIRTQIVDCAAVANWIFSSELSRDFTRLFVWEILHSTIRKMNKHVLKIQKELEEAKEKLARQHKRRSDDDDRSSDRKDGVLEEQIERLQEKVESAQSEQKNLFLVIFQRFIMILTEHLVRCETDGTSVLTPWYKNCIERLQQIFLQHHQIIQQYMVTLENLLFTAELDPHILAVFQQFCALQA | soluble |
| MGSDKIHHHHHHMNPVTHKAVLLLRPGKSPDDFTQQLRKTGRECFVHSFIEIEPLPVNKEQLTQIKQKHWDGIVIVSKNAAHYASRAGFSGVPSKYYAVGPGTASFACKHLNTAVSCPAFIHQSEGLLELSELQKLQQQNWLIIRGEGGRELLADAIRARGASVDYWEVYRRKQLTLNDPELIQQWISSVGTIVVTSAEQLGYFLSSMPNSAQSWLDSCQWIVPSHRLKGLIPFGQSDNIKVTGSAADAILMNALIADGKTHD | not soluble |
| MSSSTSQDFVSRPVIKKVFAKLQKEGDGAVVRRGISRSEQKLLDPFLMLDEFSVSPPAGFPDHPHRGITHQDFKGHKGTIYAGDVQWMTAGRGIIHSEMPEEEVNKEPNYQELSHSDIPKAEQNGVEVKVIAGESMGIQSPVYTRTPTMFLDFTLQPGAQIHQNVPESWNAFAYILESGEGGGVFSSSNSSPIPAHSVVVFGPGNDGVSVWNKSSSKQLRFVLIAGEPIGEPVVQYGPFVMNTQAEIDMTIEDYHYGKNGFEMAKYWRSQ | not soluble |
| MRGSHHHHHHGSIQKTTIAADSSSKPRGINYDTGIPFNVLIVDDSVFTVKQLTQIFTSEGFNIIDTAADGEEAVIKYKNHYPNIDIVTLDITMPKMDGITCLSNIMEFDKNARVIMISALGKEQLVKDCLIKGAKTFIVKPLDRAKVLQRVMSVFVK | soluble |
| MGSDKIHHHHHHMVIIHSKDLVNWTIKGHVVSDLRQISEEMNWTRMNRYGRGIWAGAIRYYQGKFYVYFGTPDEGYFMSTATDPAGPWEPLHCVKAEKGWDDCCPFFDDDGQLYFVGTHFADKYKTYLYRMTPDGKTLIENSKILINEGYGREASKLYKINGTYYHFFSEVKNGGRYIMMQRSSSITGPYLERKQLSHVQREYNEPNQGGLVEGPDRKWYFFTHHGTGDWAGRIASLLPVYWVDGWPIIGEVGQDGIGTMVWQAAKPSNEYPVRTPQSSDDFSKSVLSPQWEWNYQPRDEMWSLTERPGNLRLKAFRPLVTDNLLKAGNTLTQRCFRTNKNEVIVKMNIEGMVDGQKAGLCHYSKSYAMVGVRQSGKDRNLEFQTNKEKITGPAIKGNKVWIKSVWGLDGKSQFSYSTDGRKFTPFGEVYQLEWGYYRGSRIGIYCFNNIADAGYIDVDEFIYLY | not soluble |
